Starred links: 1 amine or outer side, 2 acyl side, 3 side chain; linkers in the order of their positions; H or OH if unused. Non-standard residues stand in square brackets, D forms with d. Groups on a side chain read outwards from the residue. No end group written: not given here. *: point of attachment. 2OEGgEgE‑C18 diacid = O=C(O)CCCCCCCCCCCCCCCCC(=O)N[C@@H](CCC(=O)N[C@@H](CCC(=O)NCCOCCOCC(=O)NCCOCCOCC(=O)*)C(=O)O)C(=O)O; C18 diacid = O=C(O)CCCCCCCCCCCCCCCCC(=O)*; γGlu = O=C(O)[C@H](CCC(=O)[*:2])N[*:1]; NMeY = CN[C@@H](Cc1ccc(O)cc1)C(=O)O; AEEA = NCCOCCOCC(=O)O; E∗ = not defined here; K∗ = not defined here; Aib = CC(C)(N)C(=O)O
Experiments:
Experiment in all cases: cell-based or functional assay
[1] = target: full-length human GLP-1R with an N-terminal FLAG tag, overexpressed on HEK-293T cells (human, UniProt P43220 24-463)
[2] = target: T1, full-length human GIPR with an N-terminal FLAG tag, overexpressed on HEK-293T cells (human, UniProt P48546 22-466)
T1 sequence (looked up): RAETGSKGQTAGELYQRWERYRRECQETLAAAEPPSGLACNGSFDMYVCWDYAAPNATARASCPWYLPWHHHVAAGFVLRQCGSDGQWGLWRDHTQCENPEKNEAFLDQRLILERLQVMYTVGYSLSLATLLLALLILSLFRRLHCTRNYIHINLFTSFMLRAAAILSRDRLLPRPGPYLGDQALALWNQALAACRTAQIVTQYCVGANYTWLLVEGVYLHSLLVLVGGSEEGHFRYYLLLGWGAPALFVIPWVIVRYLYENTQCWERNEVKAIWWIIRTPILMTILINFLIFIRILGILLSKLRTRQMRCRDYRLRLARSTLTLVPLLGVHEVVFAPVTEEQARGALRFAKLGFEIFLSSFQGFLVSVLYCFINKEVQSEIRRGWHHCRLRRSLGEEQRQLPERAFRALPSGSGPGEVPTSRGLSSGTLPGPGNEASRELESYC

[3] = target: full-length human GLP-1R with an N-terminal FLAG tag (human, UniProt P43220 24-463)
[4] = target: T2, full-length human GIPR with an N-terminal FLAG tag (human, UniProt P48546 22-466)
T2 sequence (looked up): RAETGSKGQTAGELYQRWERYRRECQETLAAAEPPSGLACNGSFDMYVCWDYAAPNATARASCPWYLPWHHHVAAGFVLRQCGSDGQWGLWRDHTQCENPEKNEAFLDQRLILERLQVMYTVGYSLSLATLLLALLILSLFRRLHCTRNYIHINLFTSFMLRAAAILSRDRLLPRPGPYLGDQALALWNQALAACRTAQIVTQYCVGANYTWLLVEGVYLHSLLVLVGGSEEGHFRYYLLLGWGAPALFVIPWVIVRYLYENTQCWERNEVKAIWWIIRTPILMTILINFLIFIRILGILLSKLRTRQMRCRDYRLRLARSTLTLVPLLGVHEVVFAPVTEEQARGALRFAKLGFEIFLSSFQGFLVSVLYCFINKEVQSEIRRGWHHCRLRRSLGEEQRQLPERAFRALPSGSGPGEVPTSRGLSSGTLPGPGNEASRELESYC

Binder | Human GIPR cAMP EC50, HEK293T [2] | Human GLP1R cAMP EC50, HEK293T [3] | Human GIPR cAMP EC50, HEK293T [4] | further results
H-Y[Aib]EGTFISDYSI[Aib]LDKIK([AEEA-AEEA-γGlu-C18 diacid])QADFVNWLLAQRG-OH (SMILES CC[C@H](C)[C@H](NC(=O)[C@H](CCCCN)NC(=O)[C@H](CC(=O)O)NC(=O)[C@H](CC(C)C)NC(=O)C(C)(C)NC(=O)[C@@H](NC(=O)[C@H](CO)NC(=O)[C@H](Cc1ccc(O)cc1)NC(=O)[C@H](CC(=O)O)NC(=O)[C@H](CO)NC(=O)[C@@H](NC(=O)[C@H](Cc1ccccc1)NC(=O)[C@@H](NC(=O)CNC(=O)[C@H](CCC(=O)O)NC(=O)C(C)(C)NC(=O)[C@@H](N)Cc1ccc(O)cc1)[C@@H](C)O)[C@@H](C)CC)[C@@H](C)CC)C(=O)N[C@@H](CCCCNC(=O)COCCOCCNC(=O)COCCOCCNC(=O)CC[C@H](NC(=O)CCCCCCCCCCCCCCCCC(=O)O)C(=O)O)C(=O)N[C@@H](CCC(N)=O)C(=O)N[C@@H](C)C(=O)N[C@@H](CC(=O)O)C(=O)N[C@@H](Cc1ccccc1)C(=O)N[C@H](C(=O)N[C@@H](CC(N)=O)C(=O)N[C@@H](Cc1c[nH]c2ccccc12)C(=O)N[C@@H](CC(C)C)C(=O)N[C@@H](CC(C)C)C(=O)N[C@@H](C)C(=O)N[C@@H](CCC(N)=O)C(=O)N[C@@H](CCCNC(=N)N)C(=O)NCC(=O)O)C(C)C) [Compound No. 172] | – | – | – | Human GLP1R cAMP EC50, HEK293T [1]: 93300 pM
Me-Y[Aib]EGTFISDYSIALDR[Aib]HQQ[E∗]FV[K∗]WLLAQK([AEEA-AEEA-γGlu-C18 diacid])PSSGAPPPS-NH2 (not fully specified (residue 1); reading uncertain; also: E* at 21 and K* at 24 marked, meaning not given here) [Compound No. 181] | 0.4 pM | – | – | –
[NMeY][Aib]EGTFISDYSIAEDRKHQ[Aib]NFVNWLLAQK([AEEA-AEEA-γGlu-C18 diacid])PSSGAPPPS-NH2 (also: E* at 14 and K* at 17 marked * (not explained)) [Compound No. 184] | 0.5 pM | – | – | –
YXEGTFISDYSIAMDKIHQQDFVNWLLAQXGKKNDWKHNITQ (N-TER cell blank; Aib at 2; Km at 30 = Lys(2OEGgE-C18DA); C-terminus OH) [Compound No. 189] | – | – | – | Human GLP1R cAMP EC50, HEK293T [1]: 219000 pM
Me-Y[Aib]EGTFISDYSI[Aib]LDR[Aib]AQ[Aib]KFVNWLLAQRG-OH (not fully specified (residues 1, 21)) [Compound No. 209] | 0.4 pM | – | – | –
[NMeY][Aib]EGTFISDYSI[Aib]LDK[Aib]AQ[Aib]K([AEEA-AEEA-γGlu-γGlu-C18 diacid])FVNWLLAQRG-OH [Compound No. 211] | 0.5 pM | – | – | –
[NMeY][Aib]EGTFISDYSIALDR[Aib]AQ[Aib]K([AEEA-AEEA-γGlu-γGlu-C18 diacid])FVNWLLAQRG-OH [Compound No. 213] | – | – | – | Human GLP1R cAMP EC50, HEK293T [1]: 40700 pM
[NMeY][Aib]EGTFISDYSI[Aib]LDK[Aib]AQ[Aib]K([AEEA-AEEA-γGlu-γGlu-C18 diacid])FVNWLLAQRG-OH [Compound No. 220] | 0.5 pM | – | – | –
[NMeY][Aib]EGTFISDYSIALDR[Aib]K(2OEGgEgE‑C18 diacid)Q[Aib]NFVNWLLAQSG-OH (N-terminus assumed; SMILES CC[C@H](C)[C@H](NC(=O)[C@H](CO)NC(=O)[C@H](Cc1ccc(O)cc1)NC(=O)[C@H](CC(=O)O)NC(=O)[C@H](CO)NC(=O)[C@@H](NC(=O)[C@H](Cc1ccccc1)NC(=O)[C@@H](NC(=O)CNC(=O)[C@H](CCC(=O)O)NC(=O)C(C)(C)NC(=O)[C@H](Cc1ccc(O)cc1)NC)[C@@H](C)O)[C@@H](C)CC)C(=O)N[C@@H](C)C(=O)N[C@@H](CC(C)C)C(=O)N[C@@H](CC(=O)O)C(=O)N[C@@H](CCCNC(=N)N)C(=O)NC(C)(C)C(=O)N[C@@H](CCCCNC(=O)COCCOCCNC(=O)COCCOCCNC(=O)CC[C@H](NC(=O)CC[C@H](NC(=O)CCCCCCCCCCCCCCCCC(=O)O)C(=O)O)C(=O)O)C(=O)N[C@@H](CCC(N)=O)C(=O)NC(C)(C)C(=O)N[C@@H](CC(N)=O)C(=O)N[C@@H](Cc1ccccc1)C(=O)N[C@H](C(=O)N[C@@H](CC(N)=O)C(=O)N[C@@H](Cc1c[nH]c2ccccc12)C(=O)N[C@@H](CC(C)C)C(=O)N[C@@H](CC(C)C)C(=O)N[C@@H](C)C(=O)N[C@@H](CCC(N)=O)C(=O)N[C@@H](CO)C(=O)NCC(=O)O)C(C)C) [Compound No. 46] | – | 105000 pM | 0.3 pM | –
YXEGTFISDYSIXXDRXAQXDFVNWLLAQSPSSGAPPPS (N-methyl Tyr 1; Aib at 2,13,17,20; Lys(G5-C18 diacid) at 14; C-terminal OH) [Compound No. 47] | – | 148000 pM | 0.8 pM | –
YXEGTFISDYSIXXDRXAQXDFVNWLLAQSPSSGAPPPS (N-methyl Tyr 1; Aib at 2,13,17,20; Lys(G5-C18 diacid) at 14; C-terminal NH2) [Compound No. 48] | – | 87100 pM | 0.7 pM | –
[NMeY][Aib]EGTFISDYSIALDR[Aib]K(2OEGgEgE‑C18 diacid)Q[Aib]DFVNWLLAQRG-OH (N-terminus assumed; SMILES CC[C@H](C)[C@H](NC(=O)[C@H](CO)NC(=O)[C@H](Cc1ccc(O)cc1)NC(=O)[C@H](CC(=O)O)NC(=O)[C@H](CO)NC(=O)[C@@H](NC(=O)[C@H](Cc1ccccc1)NC(=O)[C@@H](NC(=O)CNC(=O)[C@H](CCC(=O)O)NC(=O)C(C)(C)NC(=O)[C@H](Cc1ccc(O)cc1)NC)[C@@H](C)O)[C@@H](C)CC)C(=O)N[C@@H](C)C(=O)N[C@@H](CC(C)C)C(=O)N[C@@H](CC(=O)O)C(=O)N[C@@H](CCCNC(=N)N)C(=O)NC(C)(C)C(=O)N[C@@H](CCCCNC(=O)COCCOCCNC(=O)COCCOCCNC(=O)CC[C@H](NC(=O)CC[C@H](NC(=O)CCCCCCCCCCCCCCCCC(=O)O)C(=O)O)C(=O)O)C(=O)N[C@@H](CCC(N)=O)C(=O)NC(C)(C)C(=O)N[C@@H](CC(=O)O)C(=O)N[C@@H](Cc1ccccc1)C(=O)N[C@H](C(=O)N[C@@H](CC(N)=O)C(=O)N[C@@H](Cc1c[nH]c2ccccc12)C(=O)N[C@@H](CC(C)C)C(=O)N[C@@H](CC(C)C)C(=O)N[C@@H](C)C(=O)N[C@@H](CCC(N)=O)C(=O)N[C@@H](CCCNC(=N)N)C(=O)NCC(=O)O)C(C)C) [Compound No. 49] | – | 107000 pM | 0.6 pM | –
YXEGTFISDYSIALDRXAQXDFVNWLLAQRPSSGAPPPS (N-methyl Tyr 1; Aib at 2,20; Lys(G5-C18 diacid) at 17; C-terminal OH) [Compound No. 51] | – | 14800 pM | 0.6 pM | –
